Usually Kd stands for the concentration at which binding is half-saturated. A low value points to tighter binding. In general, IC50 refers to the concentration needed to halve the response being measured. A word on the koff: it is a measure of how fast the partners let go of each other. A lower koff goes with a long-lived complex. Usually kon stands for the second-order rate constant of association.

Experimental findings from patent US20190218253A1 (NATIONAL UNIVERSITY OF SINGAPORE, published 2019) are described below.

Test [1] concerns the target T1, retinoblastoma binding protein 4 (RBBp4) (UniProt Q09028 1-425).
T1 construct: Bought protein; Crystal structure numbering runs at least over residues 33-404; also called RbAp48
Briefly: isothermal titration calorimetry, peptide titrated into RBBp4, 25 °C; isothermal titration calorimetry. The method, then: (§1) ITC was carried out with an Auto-iTC200 instrument from Microcal Inc. at 25° C. […] of RBBp4 in 50 mM Tris and 100 mM NaCl at pH 7.4 was loaded into the ITC cell. Sal14 peptide at […] was auto-loaded into the syringe. The titration was carried out with 18 injections of 2.4 μl, performed over a period of 30 min with stirring at 1000 rpm. The ITC data was analysed using Origin software from Microcal.
(In ITC the heat of successive injections is recorded.)

Test [2] deals with T1, retinoblastoma binding protein 4 (RBBp4). As to the kind of experiment: fluorescence polarization competition: peptide titrated into RBBp4 + C-terminal FITC-labelled WT SALL4 peptide.
T1 sequence (Q09028 whole entry): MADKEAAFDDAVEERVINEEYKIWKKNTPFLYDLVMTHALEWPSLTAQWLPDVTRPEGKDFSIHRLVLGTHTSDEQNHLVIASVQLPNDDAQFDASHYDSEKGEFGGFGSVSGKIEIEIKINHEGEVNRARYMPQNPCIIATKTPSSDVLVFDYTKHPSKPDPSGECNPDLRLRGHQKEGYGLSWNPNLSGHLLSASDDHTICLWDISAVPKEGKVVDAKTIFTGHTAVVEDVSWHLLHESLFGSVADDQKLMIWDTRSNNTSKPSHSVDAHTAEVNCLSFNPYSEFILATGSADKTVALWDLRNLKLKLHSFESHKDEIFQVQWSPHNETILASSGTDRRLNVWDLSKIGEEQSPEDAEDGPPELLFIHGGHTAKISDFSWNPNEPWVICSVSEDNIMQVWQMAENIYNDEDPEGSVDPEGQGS
The target is the same in test [3]. Briefly: SPR (Biacore T200), RBBp4 amine-coupled to CM5 chip, peptide as analyte; surface plasmon resonance. The procedure:
SPR studies were performed using a Biacore T200 biosensor (GE Healthsciences). ˜12,000 resonance units (RU) of RBBp4 were immobilised by amine coupling to the carboxymethylated dextran matrix of a Series S CM5 chip (Biacore, GE Healthcare). […] The association time and flow rate were set at 60 s and 30 μl/min respectively.
A general note: In SPR one partner is held on a chip, and binding of the other changes the refractive index at the surface.

For test [4] the target is unchanged. Briefly: cell-based or functional assay.
The target is the same in test [5]. Briefly: isothermal titration calorimetry, peptide titrated into RBBp4, 1:1 binding model. The method, then:
as §1

T1 sequence (Q09028 whole entry, the tested form may be a part): as the sequence (Q09028 whole entry) above

B1: WT SALL4 peptide (1-12 aa), MSRRKQAKPQHI (peptide)
peptide: MSRRKQAKPQHI
notes: As used in ITC, SPR, crystal structure and the alanine-scan FP assay; also called SALL4 WT; 12-aa SALL4 peptide
In test [1], B1 returned an equilibrium dissociation constant (Kd) of 1.04 µM. Further, the half-maximal inhibitory concentration (IC50) in test [2] is 1 µM. In test [3], this molecule returned an equilibrium dissociation constant (Kd) of 1.5 µM, a koff of 0.026 s⁻¹ and a kon of 16800 M⁻¹ s⁻¹. Further, the “PTEN expression by Q-PCR in SNU398 cells treated with peptide” value in test [4] is 3 fold. Further, in test [5], the Ka was determined as 960000 M⁻¹.
